The term Kd denotes the constant that tells how readily two partners part at equilibrium. High values mean lower affinity, low ones higher affinity. One may read the koff as a measure of how fast the partners let go of each other. A low value points to slow dissociation. In general, kon refers to the rate constant with which the complex forms. A high value points to fast association.

The values that follow come from publication PMC7116854 (Nature, 2020).

Like-named read-outs stand apart in the source and are kept apart here.

Common to all, as to assay: SPR
On the technique in general: Surface plasmon resonance follows binding to a sensor surface in real time, without labels.

The target of assay [1] is T1, LILRB1 D1D4 (complete extracellular domain of LILRB1) (human, UniProt Q8NHL6 24-417).
Assay [2] addresses T2, LILRB1 D1D2 (human, UniProt Q8NHL6 24-221).
For assay [3], the target named is T1, LILRB1 D1D4 (complete extracellular …). This is another data set of the same source.
Assay [4] concerns the target T2, LILRB1 D1D2. The source holds these as a separate data set.

T1 sequence (Q8NHL6 24-417): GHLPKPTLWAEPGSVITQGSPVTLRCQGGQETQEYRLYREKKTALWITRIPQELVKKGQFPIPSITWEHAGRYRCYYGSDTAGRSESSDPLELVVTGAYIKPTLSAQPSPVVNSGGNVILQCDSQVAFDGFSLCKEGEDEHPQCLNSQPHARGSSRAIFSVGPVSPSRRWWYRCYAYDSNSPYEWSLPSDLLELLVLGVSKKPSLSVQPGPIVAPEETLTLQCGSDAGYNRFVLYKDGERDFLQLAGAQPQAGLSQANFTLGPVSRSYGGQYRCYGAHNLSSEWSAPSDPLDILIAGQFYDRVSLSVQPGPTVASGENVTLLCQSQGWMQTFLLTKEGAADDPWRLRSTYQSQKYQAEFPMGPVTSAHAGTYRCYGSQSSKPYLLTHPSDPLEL
T2 sequence (Q8NHL6 24-221): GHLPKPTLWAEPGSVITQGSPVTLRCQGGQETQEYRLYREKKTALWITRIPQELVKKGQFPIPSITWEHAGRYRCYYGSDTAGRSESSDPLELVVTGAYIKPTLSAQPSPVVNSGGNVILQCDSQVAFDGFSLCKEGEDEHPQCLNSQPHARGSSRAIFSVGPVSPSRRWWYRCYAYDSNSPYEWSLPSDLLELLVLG

B1: RIFIN PF3D7_1254800 variable region C223S (165-261) (domain or fragment)
chain: NYETINAFIAKTIEELEGIPGITKLFGAKISQFVTPAVFRKPMSLVETILSEKKKLCLSAANKNELLCRGMNPNVPETLPKKIEVAVNEVLSSVNDT
For the molecule B1, the Kd is 700 ± 5 nM in assay [1], 1100 ± 50 nM in the assay with LILRB1 D1D2 [2], 1040 nM in assay [3] and 1330 nM with LILRB1 D1D2 [4]. Also, the results for the koff (in assay [3]; with LILRB1 D1D2 [4]) were 0.299 s⁻¹ and 0.579 s⁻¹, respectively. Further, the on-rate (kon) in assay [3] turned out to be 288000 M⁻¹ s⁻¹; with LILRB1 D1D2 [4], 437000 M⁻¹ s⁻¹.

B2: RIFIN PF3D7_0100400 variable region (165-329) (domain or fragment)
chain: VWKTTEIAAAMELAKQAGAAAGLKAGHLAGTNAVIEQLRTLGIYFVGDKLLETIIDVTNYMNVSFIYDKVYSHYTTSCTPSLVNDQLVGTFNTSDPFCNLVHSNLQGSFYRSSAQTIIYEKVEEAVAGAEQAATTKTAVMTPIYTTEFTAKNIAEVEAATTSYYT
B2 returned a Kd in assay [1] of 4400 ± 3200 nM. In assay [3], this molecule showed a Kd of 14500 nM, a koff of 0.0592 s⁻¹ and a kon of 4100 M⁻¹ s⁻¹.

B3: RIFIN PF3D7_1254800 variable region (residues 165-274) (domain or fragment)
chain: NYETINAFIAKTIEELEGIPGITKLFGAKISQFVTPAVFRKPMSLVETILSEKKKLCLCAANKNELLCRGMNPNVPETLPKKIEVAVNEVLSSVNDTWATATTPTTFFTN
Molecule B3 displayed a Kd in assay [1] of 570 ± 130 nM. In assay [3], the affinity, expressed as Kd, was 1130 nM; the koff turned out to be 0.297 s⁻¹; the kon is 263000 M⁻¹ s⁻¹.
